Several values for one entry are separate records, joined by “and”; a condition that tells them apart may be missing. Equal values may be shown once.
T1: human CD37 (human, UniProt P11049 1-278)
T1 construct: Tetraspanin antigen; Expressed on 300-19 cells transfected with pSRa-CD37 (entire CDS) or endogenous on WSU-DLCL-2, BJAB and Ramos lymphoma cells; also called CD37 antigen; human CD37 wildtype
T1 sequence: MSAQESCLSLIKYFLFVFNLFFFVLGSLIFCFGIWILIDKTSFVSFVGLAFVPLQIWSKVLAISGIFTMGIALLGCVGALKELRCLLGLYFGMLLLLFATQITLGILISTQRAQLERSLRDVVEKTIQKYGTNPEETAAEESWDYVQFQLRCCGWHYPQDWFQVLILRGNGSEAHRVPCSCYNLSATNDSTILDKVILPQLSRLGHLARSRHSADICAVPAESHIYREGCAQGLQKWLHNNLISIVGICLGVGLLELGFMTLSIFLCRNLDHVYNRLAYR

T2: macaque CD37 (macaque, UniProt P11049 1-277 (human entry))
T2 construct: Expressed on 300-19 cells transfected with pSRa-CD37mac (300-19/CD37mac cells); also called macaca CD37; macaque derived CD37 antigen
T2 chain: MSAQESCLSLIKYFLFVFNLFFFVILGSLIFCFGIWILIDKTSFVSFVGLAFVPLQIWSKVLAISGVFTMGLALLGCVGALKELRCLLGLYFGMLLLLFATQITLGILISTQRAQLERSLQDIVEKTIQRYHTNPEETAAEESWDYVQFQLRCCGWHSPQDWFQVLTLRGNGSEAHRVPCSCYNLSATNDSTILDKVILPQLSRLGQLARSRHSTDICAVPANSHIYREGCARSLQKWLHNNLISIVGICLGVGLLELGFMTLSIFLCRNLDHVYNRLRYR


Legend:
human CD37 [1] = target: T1, human CD37; test: flow cytometry titration; apparent Kd; cells not named
human CD37 [2] = target: T1, human CD37; test: cell-based or functional assay
macaque CD37 = target: T2, macaque CD37; test: flow cytometry titration on 300-19/CD37mac cells; apparent Kd
Experimental: (§1) Binding specificity was tested by flow cytometry using purified antibodies. […] All murine antibodies were incubated for 3 h with either CD37-expressing 300-19 cells or the non-transfected 300-19 cells (1×10⁵ cells per sample) in 100 μL FACS buffer (RPMI-1640 medium supplemented with 2% normal goat serum). Then, the cells were pelleted, washed, and incubated for 1 h with 100 μL of FITC-conjugated goat anti-mouse IgG-antibody (Jackson Laboratory, 6 μg/mL in FACS buffer). The cells were pelleted again, washed with FACS buffer and resuspended in 200 μL of PBS containing 1% formaldehyde. Samples were acquired using a FACSCalibur flow cytometer with the HTS multiwell sampler or a FACS array flow cytometer and analyzed using CellQuest Pro (all from BD Biosciences, San Diego, US).
(§2) Flow cytometry binding assays were carried out using secondary FITC-conjugated goat-anti-human antibodies, analyzed as described in Example 2 and dose-response curves were generated by non-linear regression for each antibody. The value for the apparent dissociation constant (Kd) of each antibody was calculated using GraphPad Prism v4 (GraphPad software, San Diego, Calif.).

human CD37 [3] = target: T1, human CD37; test: flow cytometry titration on BJAB cells; apparent Kd
Experimental: as §1
as §2, with “The humanized antibodies huCD37-38, huCD37-50, huCD37-51, huCD37-56 and chCD37-57 were assayed for their binding affinity to BJAB cells in comparison to their murine counterparts. Flow” for “Flow”, “goat-anti-murine and -anti-human” for “goat-anti-human”

Row | Binder | Kd (human CD37 [1]) | Kd (macaque CD37) [nM] | Kd (human CD37 [3]) [nM] | EC50 of in vitro cytotoxicity, WST-8 assay, Daudi cells (human CD37 [2]) [nM] | other results
1 | huCD37-50-SMCC-DM1 (antibody, human IgG1, kappa, V domains shown, DM1 attached through SMCC linker; attachment residues and load not stated, SMCC-DM1 conjugate of huCD37-50) VH: QVQLQESGPGLLKPSQSLSLTCTVSGYSITSGFAWHWIRQHPGNKLEWMGYILYSGSTVYSPSLKSRISITRDTSKNHFFLQLNSVTAADTATYYCARGYYGYGAWFAYWGQGTLVTVSA VL: EIVLTQSPATMSASPGERVTMTCSATSSVTYMHWYQQKPGQSPKRWIYDTSNLPYGVPARFSGSGSGTSYSLTISSMEAEDAATYYCQQWSDNPPTFGQGTKLEIKR | 0.7 nM |  |  | 0.13 | EC50 of in vitro cytotoxicity, WST-8 assay, Granta-519 cells (human CD37 [2]): 0.12 nM
2 | huCD37-51 (antibody, human IgG1, kappa, V domains shown, Humanized antibody) VH: EVQLVESGPEVLKPGESLSLTCTVSGYSISSGFAWHWIRQFPGKGLEWMGYIHYSGSTNYSPSLQGRISITRDSSINQFFLQLNSVTASDTATYYCARGYYGFGAWFVYWGQGTLVTVSA VL: EIVLTQSPATMSASPGERVTMTCSATSSVTYMHWYQQKPGQSPKRWIYDTSKLASGVPARFSGSGSGTSYSLTISSMEAEDAATYYCQQWSSNPPTFGQGTKLEIKR | 2 nM | 14 | 0.8 |  | 
3 | huCD37-50-PEG4-mal-DM1 (antibody, human IgG1, kappa, V domains shown, DM1 attached through PEG4-mal linker; attachment residues and load not stated, PEG4-mal-DM1 conjugate of huCD37-50) VH: QVQLQESGPGLLKPSQSLSLTCTVSGYSITSGFAWHWIRQHPGNKLEWMGYILYSGSTVYSPSLKSRISITRDTSKNHFFLQLNSVTAADTATYYCARGYYGYGAWFAYWGQGTLVTVSA VL: EIVLTQSPATMSASPGERVTMTCSATSSVTYMHWYQQKPGQSPKRWIYDTSNLPYGVPARFSGSGSGTSYSLTISSMEAEDAATYYCQQWSDNPPTFGQGTKLEIKR | 1.1 nM |  |  |  | 
4 | huCD37-50 (antibody, human IgG1, kappa, V domains shown, Resurfaced (humanized) antibody) VH: QVQLQESGPGLLKPSQSLSLTCTVSGYSITSGFAWHWIRQHPGNKLEWMGYILYSGSTVYSPSLKSRISITRDTSKNHFFLQLNSVTAADTATYYCARGYYGYGAWFAYWGQGTLVTVSA VL: EIVLTQSPATMSASPGERVTMTCSATSSVTYMHWYQQKPGQSPKRWIYDTSNLPYGVPARFSGSGSGTSYSLTISSMEAEDAATYYCQQWSDNPPTFGQGTKLEIKR | 0.43 nM and 0.68 nM | 1.8 | 0.2 |  | 
5 | huCD37-51-SMCC-DM1 (antibody, human IgG1, kappa, V domains shown, DM1 attached through SMCC linker; attachment residues and load not stated, SMCC-DM1 conjugate of huCD37-51) VH: EVQLVESGPEVLKPGESLSLTCTVSGYSISSGFAWHWIRQFPGKGLEWMGYIHYSGSTNYSPSLQGRISITRDSSINQFFLQLNSVTASDTATYYCARGYYGFGAWFVYWGQGTLVTVSA VL: EIVLTQSPATMSASPGERVTMTCSATSSVTYMHWYQQKPGQSPKRWIYDTSKLASGVPARFSGSGSGTSYSLTISSMEAEDAATYYCQQWSSNPPTFGQGTKLEIKR | 1.6 nM |  |  | 0.2 | EC50 of in vitro cytotoxicity, WST-8 assay, Granta-519 cells (human CD37 [2]): 0.25 nM
6 | huCD37-56 (antibody, human IgG1, kappa, V domains shown, Humanized antibody) VH: QVQLQESGPGLVKPSQSLSLTCTVSGYSITSGFAWHWIRQFPGKGLEWMGYIHYSGGTNYNPSLKSRVSITRDTSKNQFFLQLNSVTAADTATYYCARGYYGFGAWFAYWGQGTLVPVSA VL: DIVLTQSPAFMSASPGEKVTMTCSASSSVTYMHWYQQKPDQSPKRWIYDTSNLASGVPSRFSGGGSGTDYSLTISSMEAEDAATYYCQQWISDPPTFGQGTKLEIKR | 0.3 nM | 5 | 0.2 |  | 
7 | huCD37-3-PEG4-mal-DM1 (antibody, human IgG1, kappa, V domains shown, DM1 attached through PEG4-mal linker; attachment residues not stated; 3.5-4 maytansinoid molecules per antibody, heavy chain version as for huCD37-3, see its note) VH: QVQVQESGPGLVAPSQTLSITCTVSGFSLTTSGVSWVRQPPGKGLEWLGVIWGDGSTNYHPSLKSRLSIKKDHSKSQVFLKLNSLTAADTATYYCAKGGYSLAHWGQGTLVTVSS VL: DIQMTQSPSSLSVSVGERVTITCRASENIRSNLAWYQQKPGKSPKLLVNVATNLADGVPSRFSGSGSGTDYSLKINSLQPEDFGTYYCQHYWGTTWTFGQGTKLEIKR | 0.35 nM |  |  |  | EC50 of in vitro cytotoxicity, BJAB cells (human CD37 [2]): 0.01 nM; EC50 of in vitro cytotoxicity, Daudi cells (human CD37 [2]): 0.018 nM; EC50 of in vitro cytotoxicity, Granta-519 cells (human CD37 [2]): 0.012 nM; EC50 of in vitro cytotoxicity, Namalwa cells (human CD37 [2]): 0.024 nM; EC50 of in vitro cytotoxicity, Raji cells (human CD37 [2]): 0.045 nM; EC50 of in vitro cytotoxicity, Raji-VCR cells (human CD37 [2]): 0.037 nM; EC50 of in vitro cytotoxicity, Ramos cells (human CD37 [2]): 0.069 nM; EC50 of in vitro cytotoxicity, SU-DHL-4 cells (human CD37 [2]): 0.024 nM

Continued, in another order:

Row | Kd (human CD37 [1]) | Kd (macaque CD37) [nM] | Kd (human CD37 [3]) [nM] | Binder | EC50 of in vitro cytotoxicity, WST-8 assay, Daudi cells (human CD37 [2]) [nM] | other results
8 | 0.34 nM |  |  | huCD37-57-SMCC-DM1 (antibody, human IgG1, kappa, V domains shown, DM1 attached through SMCC linker; attachment residues and load not stated, SMCC-DM1 conjugate of huCD37-57) VH: QVQLQESGPGLLKPSQSLSLTCTVSGYSITSGFAWHWIRQFPGKGLEWMGYILYSGSTVYSPSLKSRISITRDTSKNQFFLQLNSVTAADTATYYCARGYYGYGAWFAYWGQGTLVTVSA VL: EIVLTQSPATMSASPGERVTMTCSATSSVTYMHWYQQKPGQSPRRWIYDTSNLASGVPARFSGSGSGTSYSLTISSMEAEDAATYYCQQWSDNPPTFGQGTKLEIKR | 0.35 | 
9 | 0.3 nM | 2 |  | huCD37-57 (antibody, human IgG1, kappa, V domains shown, Humanized antibody) VH: QVQLQESGPGLLKPSQSLSLTCTVSGYSITSGFAWHWIRQFPGKGLEWMGYILYSGSTVYSPSLKSRISITRDTSKNQFFLQLNSVTAADTATYYCARGYYGYGAWFAYWGQGTLVTVSA VL: EIVLTQSPATMSASPGERVTMTCSATSSVTYMHWYQQKPGQSPRRWIYDTSNLASGVPARFSGSGSGTSYSLTISSMEAEDAATYYCQQWSDNPPTFGQGTKLEIKR |  | 
10 | 0.34 nM |  |  | huCD37-56-SMCC-DM1 (antibody, human IgG1, kappa, V domains shown, DM1 attached through SMCC linker; attachment residues and load not stated, SMCC-DM1 conjugate of huCD37-56) VH: QVQLQESGPGLVKPSQSLSLTCTVSGYSITSGFAWHWIRQFPGKGLEWMGYIHYSGGTNYNPSLKSRVSITRDTSKNQFFLQLNSVTAADTATYYCARGYYGFGAWFAYWGQGTLVPVSA VL: DIVLTQSPAFMSASPGEKVTMTCSASSSVTYMHWYQQKPDQSPKRWIYDTSNLASGVPSRFSGGGSGTDYSLTISSMEAEDAATYYCQQWISDPPTFGQGTKLEIKR | 0.31 | 

Source: patent publication US20110256153A1 (IMMUNOGEN, published 2011)
